Key:
[1] = molecular target: T1, Human CLEC12A expressed on cells (Ba/F3-hCLEC12A, PL21, HL60) (human, UniProt Q5QGZ9 1-265); assay: cell-based or functional assay
T1 sequence: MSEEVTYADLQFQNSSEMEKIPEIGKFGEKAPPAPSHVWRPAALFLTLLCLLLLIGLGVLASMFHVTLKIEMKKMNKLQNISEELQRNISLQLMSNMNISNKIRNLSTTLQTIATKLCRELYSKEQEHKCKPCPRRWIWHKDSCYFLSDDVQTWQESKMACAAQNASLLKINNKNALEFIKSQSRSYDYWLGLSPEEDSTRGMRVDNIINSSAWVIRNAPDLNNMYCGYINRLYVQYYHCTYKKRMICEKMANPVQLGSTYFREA

Human CD32b (FcγRIIb) = molecular target: T2, Human CD32b (FcγRIIb) (human, UniProt P31994 46-217, limits assumed, biotinylated); assay: SPR, summary of FcγR affinities
T2 construct: Bought recombinant receptor; also called hFcγRIIb; CD32b (FcγR2b)
T2 sequence (looked up): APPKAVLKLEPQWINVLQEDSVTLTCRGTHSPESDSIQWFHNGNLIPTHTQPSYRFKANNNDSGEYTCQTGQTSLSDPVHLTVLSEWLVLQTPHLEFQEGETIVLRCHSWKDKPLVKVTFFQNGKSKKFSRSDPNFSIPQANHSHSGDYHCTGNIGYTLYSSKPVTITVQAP
Description: Human and cynomolgus CD64, high and low affinity alleles of CD16a (V158 and F158, respectively), two alleles of CD32a (H131 and R131), CD16b, CD32b and cynomolgus CD16 were captured via biotin on a primed (according to the manufacturers instruction) Biacore chip. […] Due to irreversibility of streptavidin-biotin interaction, the capture step for all receptors except FcγRI (CD64) was performed just once prior to the start of the binding experiment. hCD64 and cyno CD64 capture on the CAP chip surface was performed during each cycle in accordance with the manufacturer's instructions for the Biotin CAPture kit.
Detailed description of each individual receptor binding is presented below.

[2] = molecular target: T3, Human CLEC12A-His (recombinant, K244 WT) (human, UniProt Q5QGZ9 65-265); assay: SPR, two-state fit; after pH 8, 40C, 2 wks
T3 construct: Made in house (Dragonfly Tx); also called hCLEC12A; hCLEC12A-His; not shown: His tag
T3 sequence: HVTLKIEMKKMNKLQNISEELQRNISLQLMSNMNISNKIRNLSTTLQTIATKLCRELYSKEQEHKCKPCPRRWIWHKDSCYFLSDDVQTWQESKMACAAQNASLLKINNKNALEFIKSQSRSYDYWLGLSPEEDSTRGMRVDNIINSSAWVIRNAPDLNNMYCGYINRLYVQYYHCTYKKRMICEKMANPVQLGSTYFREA

[3] = molecular target: T3, Human CLEC12A-His (recombinant, K244 WT); assay: SPR, two-state fit (kd1); control (fully purified protein study)
Description: (§1) Briefly, human Fc specific antibodies were covalently immobilized at a density ˜8000-10000 resonance units (RU) on carboxy methyl dextran matrix of a CM5 biosensor chip via amine-coupling chemistry to create an anti-hFc IgG chip. […] Association was monitored for 300 seconds and dissociation was monitored for 600 seconds. Surfaces were regenerated between cycles with three pulses of 10 mM glycine-HCl, pH 1.7 injected for 20 seconds at 100 μl/min. HBS-EP+ (1×) with 0.1 mg/ml BSA was used as running buffer throughout the experiment. Experiments were performed at physiological temperature of 37° C. To obtain kinetic rate constants and overall binding affinity, double-referenced data were fit to a two-state kinetic model using Biacore 8K Insight Evaluation software (Cytiva).

[4] = molecular target: T3, Human CLEC12A-His (recombinant, K244 WT); assay: SPR, two-state fit (kd1); after 4 wks 40C in HST pH 6.0
Description: as §1

[5] = molecular target: T1, Human CLEC12A expressed on cells …; assay: cell-based or functional assay; remark: listed apart in the source

- Kd (Human CD32b (FcγRIIb)): 6.27 µM
- Kd [2]: 0.9 nM
- koff [3]: 0.0272 s⁻¹
- koff [4]: 0.0424 s⁻¹
- EC50, lysis of PL21 cells by NK cells, with sMIC-A-Fc [5]: 0.26 nM
- EC50, lysis of PL21 cells by NK cells, without sMIC-A-Fc [5]: 0.32 nM
B1: AB0089 TriNKET (bispecific antibody, human IgG1, kappa)
chain: QLQLQESGPGLVKPSETLSLTCTVSGFSLTNYGLHWIRQPPGKCLEWIGVIWVGGATDYNPSLKSRVTISVDTSKNQFSLKLSSVQAADTAVYYCAKGDYGDTLDYWGQGTLVTVSSGGGGSGGGGSGGGGSGGGGSDIQMTQSPSSLSASVGDRVTITCHASQNINFWLSWYQQKPGKAPKLLIYEASNLHTGVPSRFSGSGSGTDFTLTISSLQPEDFATYYCQQSHSYPLTFGCGTKLEIKGSDKTHTCPPCPAPELLGGPSVFLFPPKPKDTLMISRTPEVTCVVVDVSHEDPEVKFNWYVDGVEVHNAKTKPREEQYNSTYRVVSVLTVLHQDWLNGKEYKCKVSNKALPAPIEKTISKAKGQPREPRVYTLPPCRDELTKNQVSLTCLVKGFYPSDIAVEWESNGQPENNYKTTPPVLVSDGSFTLYSKLTVDKSRWQQGNVFSCSVMHEALHNHYTQKSLSLSPG
heavy: EVQLVESGGGLVKPGGSLRLSCAASGFTFSSYSMNWVRQAPGKGLEWVSSISSSSSYIYYADSVKGRFTISRDNAKNSLYLQMNSLRAEDTAVYYCARGAPIGAAAGWFDPWGQGTLVTVSSASTKGPSVFPLAPSSKSTSGGTAALGCLVKDYFPEPVTVSWNSGALTSGVHTFPAVLQSSGLYSLSSVVTVPSSSLGTQTYICNVNHKPSNTKVDKKVEPKSCDKTHTCPPCPAPELLGGPSVFLFPPKPKDTLMISRTPEVTCVVVDVSHEDPEVKFNWYVDGVEVHNAKTKPREEQYNSTYRVVSVLTVLHQDWLNGKEYKCKVSNKALPAPIEKTISKAKGQPREPQVCTLPPSRDELTENQVSLTCLVKGFYPSDIAVEWESNGQPENNYKTTPPVLDSDGSFFLYSWLTVDKSRWQQGNVFSCSVMHEALHNHYTQKSLSLSPG
light: DIQMTQSPSSVSASVGDRVTITCRASQGISSWLAWYQQKPGKAPKLLIYAASSLQSGVPSRFSGSGSGTDFTLTISSLQPEDFATYYCQQGVSFPRTFGGGTKVEIKRTVAAPSVFIFPPSDEQLKSGTASVVCLLNNFYPREAKVQWKVDNALQSGNSQESVTEQDSKDSTYSLSSTLTLSKADYEKHKVYACEVTHQGLSSPVTKSFNRGEC
notes: F3' format heterodimer of three chains; human IgG1 Fc with EW-RVT and Y349C/S354C mutations; also called AB0089 Lot AB0089-002; CLEC12A TriNKET AB0089
- EC50, KHYG-1-CD16aV cytotoxicity assay; after pH 5.0, 40C, 2 wks [1]: 0.16 nM
- EC50, KHYG-1-CD16aV cytotoxicity assay; control sample [1]: 0.11 nM
